Results on 27 molecules are retold here after patent US20150344570A1 (published 2015).

To fix the notation:
T1: FcγRIIa R (human, UniProt P12318 34-217)
T1 construct: extracellular domain; also called FcgRIIa R type; 2aR
T1 sequence (looked up): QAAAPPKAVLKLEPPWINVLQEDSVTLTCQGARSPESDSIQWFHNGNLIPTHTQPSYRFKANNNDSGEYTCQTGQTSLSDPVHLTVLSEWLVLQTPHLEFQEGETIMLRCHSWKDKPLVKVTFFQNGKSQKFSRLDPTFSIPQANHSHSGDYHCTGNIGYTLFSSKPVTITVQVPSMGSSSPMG

B1: GpH7-A5/GpH7-B3 variant A330_01G/GpL16-k0 (antibody, human IgG1, kappa)
heavy 1: not shown
heavy 2: not shown
light: DIVMTQSPLSLPVTPGEPASISCQASESLVHSNRNTYLHWYLQKPGQSPQLLIYKVSNRFSGVPDRFSGSGSGTDFTLKISRVEAEDVGVYYCSQNTHVPPTFGQGTKVEIERTVAAPSVFIFPPSDEQLKSGTASVVCLLNNFYPREAKVQWKVDNALQSGNSQESVTEQDSKDSTYSLSSTLTLSKADYEKHKVYACEVTHQGLSSPVTKSFNRGEC
notes: also called He Ab A330_01G
B2: GpH7-A5/GpH7-B3 variant K334_08L/GpL16-k0 (antibody, human IgG1, kappa)
heavy 1: not shown
heavy 2: not shown
light: B1 light
notes: also called He Ab K334_08L
B3: GpH7-A5/GpH7-B3 variant K334_02A/GpL16-k0 (antibody, human IgG1, kappa)
heavy 1: not shown
heavy 2: not shown
light: B1 light
notes: also called He Ab K334_02A
B4: GpH7-A5/GpH7-B3 variant E333_09D/GpL16-k0 (antibody, human IgG1, kappa)
heavy 1: not shown
heavy 2: not shown
light: B1 light
notes: also called He Ab E333_09D
B5: GpH7-A5/GpH7-B3 variant H268_15Y/GpL16-k0 (antibody, human IgG1, kappa)
heavy 1: not shown
heavy 2: not shown
light: B1 light
notes: also called He Ab H268_15Y
B6: GpH7-A5/GpH7-B3 variant K326_20W/GpL16-k0 (antibody, human IgG1, kappa)
heavy 1: not shown
heavy 2: not shown
light: B1 light
notes: also called He Ab K326_20W
B7: GpH7-A5/GpH7-B3 variant K334_05P/GpL16-k0 (antibody, human IgG1, kappa)
heavy 1: not shown
heavy 2: not shown
light: B1 light
notes: also called He Ab K334_05P
B8: GpH7-A5/GpH7-B3 variant E269_09D/GpL16-k0 (antibody, human IgG1, kappa)
heavy 1: not shown
heavy 2: not shown
light: B1 light
notes: also called He Ab E269_09D
B9: GpH7-A5/GpH7-B3 variant G237_20W/GpL16-k0 (antibody, human IgG1, kappa)
heavy 1: not shown
heavy 2: not shown
light: B1 light
notes: also called He Ab G237_20W
B10: GpH7-A5/GpH7-B3 variant E333_05P/GpL16-k0 (antibody, human IgG1, kappa)
heavy 1: not shown
heavy 2: not shown
light: B1 light
notes: also called He Ab E333_05P
B11: GpH7-A5/GpH7-B3 variant H268_05P/GpL16-k0 (antibody, human IgG1, kappa)
heavy 1: not shown
heavy 2: not shown
light: B1 light
notes: also called He Ab H268_05P
B12: GpH7-A5/GpH7-B3 variant E333_08L/GpL16-k0 (antibody, human IgG1, kappa)
heavy 1: not shown
heavy 2: not shown
light: B1 light
notes: also called He Ab E333_08L
B13: GpH7-A5/GpH7-B3 variant G237_04F/GpL16-k0 (antibody, human IgG1, kappa)
heavy 1: not shown
heavy 2: not shown
light: B1 light
notes: also called He Ab G237_04F
B14: GpH7-A5/GpH7-B3 variant G237_13S/GpL16-k0 (antibody, human IgG1, kappa)
heavy 1: not shown
heavy 2: not shown
light: B1 light
notes: also called He Ab G237_13S
B15: GpH7-A5/GpH7-B3 variant K326_07I/GpL16-k0 (antibody, human IgG1, kappa)
heavy 1: not shown
heavy 2: not shown
light: B1 light
notes: also called He Ab K326_07I
B16: GpH7-A5/GpH7-B3 variant I336_08L/GpL16-k0 (antibody, human IgG1, kappa)
heavy 1: not shown
heavy 2: not shown
light: B1 light
notes: also called He Ab I336_08L
B17: GpH7-A5/GpH7-B3 variant K334_13S/GpL16-k0 (antibody, human IgG1, kappa)
heavy 1: not shown
heavy 2: not shown
light: B1 light
notes: also called He Ab K334_13S
B18: GpH7-A5/GpH7-B3 variant G237_08L/GpL16-k0 (antibody, human IgG1, kappa)
heavy 1: not shown
heavy 2: not shown
light: B1 light
notes: also called He Ab G237_08L
B19: GpH7-A5/GpH7-B3 variant A330_19Q/GpL16-k0 (antibody, human IgG1, kappa)
heavy 1: not shown
heavy 2: not shown
light: B1 light
notes: also called He Ab A330_19Q
B20: GpH7-A5/GpH7-B3 variant K334_10E/GpL16-k0 (antibody, human IgG1, kappa)
heavy 1: not shown
heavy 2: not shown
light: B1 light
notes: also called He Ab K334_10E
B21: GpH7-A5/GpH7-B3 variant G236_14T/GpL16-k0 (antibody, human IgG1, kappa)
heavy 1: not shown
heavy 2: not shown
light: B1 light
notes: also called He Ab G236_14T
B22: GpH7-A5/GpH7-B3 variant I332_14T/GpL16-k0 (antibody, human IgG1, kappa)
heavy 1: not shown
heavy 2: not shown
light: B1 light
notes: also called He Ab I332_14T
B23: GpH7-A5/GpH7-B3 variant A330_05P/GpL16-k0 (antibody, human IgG1, kappa)
heavy 1: not shown
heavy 2: not shown
light: B1 light
notes: also called He Ab A330_05P
B24: GpH7-A5/GpH7-B3 variant K334_19Q/GpL16-k0 (antibody, human IgG1, kappa)
heavy 1: not shown
heavy 2: not shown
light: B1 light
notes: also called He Ab K334_19Q
B25: GpH7-A5/GpH7-B3 variant I332_06M/GpL16-k0 (antibody, human IgG1, kappa)
heavy 1: not shown
heavy 2: not shown
light: B1 light
notes: also called He Ab I332_06M
B26: GpH7-A5/GpH7-B3 variant H268_12R/GpL16-k0 (antibody, human IgG1, kappa)
heavy 1: not shown
heavy 2: not shown
light: B1 light
notes: also called He Ab H268_12R
B27: GpH7-A5/GpH7-B3 variant H268_20W/GpL16-k0 (antibody, human IgG1, kappa)
heavy 1: not shown
heavy 2: not shown
light: B1 light
notes: also called He Ab H268_20W

This test addresses T1, FcγRIIa R. As to the kind of experiment: SPR (Biacore), captured antibody, FcγR as analyte; relative binding activity.
Consider B1, for which the He/Con_2aR was 109 % (GpH7-A5/GpH7-B3/GpL16-k0 = 100).
As for B2, the He/Con_2aR is 106 % (GpH7-A5/GpH7-B3/GpL16-k0 = 100).
As to B3, the He/Con_2aR was 105 % (GpH7-A5/GpH7-B3/GpL16-k0 = 100).
With B4, the He/Con_2aR was 103 % (GpH7-A5/GpH7-B3/GpL16-k0 = 100).
Next, B5: 110 % (GpH7-A5/GpH7-B3/GpL16-k0 = 100); B6: 131 % (GpH7-A5/GpH7-B3/GpL16-k0 = 100); B7: 103 % (GpH7-A5/GpH7-B3/GpL16-k0 = 100).
Consider B8, for which the He/Con_2aR is 105 % (GpH7-A5/GpH7-B3/GpL16-k0 = 100).
On to B9, for which the He/Con_2aR is 138 % (GpH7-A5/GpH7-B3/GpL16-k0 = 100).
For B10, the He/Con_2aR is 105 % (GpH7-A5/GpH7-B3/GpL16-k0 = 100).
Regarding B11, the He/Con_2aR is 106 % (GpH7-A5/GpH7-B3/GpL16-k0 = 100).
In the case of B12, the He/Con_2aR is 103 % (GpH7-A5/GpH7-B3/GpL16-k0 = 100).
Consider B13, for which the He/Con_2aR was 126 % (GpH7-A5/GpH7-B3/GpL16-k0 = 100).
B14: the He/Con_2aR was 121 % (GpH7-A5/GpH7-B3/GpL16-k0 = 100).
Next, B15: 147 % (GpH7-A5/GpH7-B3/GpL16-k0 = 100); B16: 110 % (GpH7-A5/GpH7-B3/GpL16-k0 = 100); B17: 109 % (GpH7-A5/GpH7-B3/GpL16-k0 = 100).
In the case of B18, the He/Con_2aR is 133 % (GpH7-A5/GpH7-B3/GpL16-k0 = 100).
Turning to B19, the He/Con_2aR is 104 % (GpH7-A5/GpH7-B3/GpL16-k0 = 100).
In the case of B20, the He/Con_2aR was 106 % (GpH7-A5/GpH7-B3/GpL16-k0 = 100).
As to B21, the He/Con_2aR is 103 % (GpH7-A5/GpH7-B3/GpL16-k0 = 100).
As to B22, the He/Con_2aR was 105 % (GpH7-A5/GpH7-B3/GpL16-k0 = 100).
Turning to B23, the He/Con_2aR is 115 % (GpH7-A5/GpH7-B3/GpL16-k0 = 100).
With B24, the He/Con_2aR is 109 % (GpH7-A5/GpH7-B3/GpL16-k0 = 100).
Turning to B25, the He/Con_2aR is 109 % (GpH7-A5/GpH7-B3/GpL16-k0 = 100).
In the case of B26, the He/Con_2aR is 105 % (GpH7-A5/GpH7-B3/GpL16-k0 = 100).
B27: the He/Con_2aR was 113 % (GpH7-A5/GpH7-B3/GpL16-k0 = 100).
